Data from article PMC314469, “Protein Interaction Networks by Proteome Peptide Scanning” (PLoS Biology, 2004).

T1: Boi1 SH3 (BOI1_YEAST), P38041
T1 chain: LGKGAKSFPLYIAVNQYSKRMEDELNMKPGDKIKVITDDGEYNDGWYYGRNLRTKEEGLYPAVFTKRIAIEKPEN

T2: Boi2 SH3 (BOI2_YEAST), P39969
T2 chain: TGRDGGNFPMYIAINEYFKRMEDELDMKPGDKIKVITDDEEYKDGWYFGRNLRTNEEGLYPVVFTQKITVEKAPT

T3: Myo5 SH3 (MYO5_YEAST), Q04439
T3 chain: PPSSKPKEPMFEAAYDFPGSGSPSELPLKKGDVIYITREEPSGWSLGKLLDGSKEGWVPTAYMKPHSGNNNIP

T4: Rvs167 SH3 (RV167_YEAST), P39743
T4 chain: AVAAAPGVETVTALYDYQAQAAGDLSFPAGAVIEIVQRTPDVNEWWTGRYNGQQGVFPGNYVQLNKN

T5: Yfr024 SH3 (LSB3_YEAST), P43603
T5 chain: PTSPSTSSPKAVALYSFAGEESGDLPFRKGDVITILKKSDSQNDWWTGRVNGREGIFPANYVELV

T6: Yhr016c SH3 (YSC84_YEAST), P32793
T6 chain: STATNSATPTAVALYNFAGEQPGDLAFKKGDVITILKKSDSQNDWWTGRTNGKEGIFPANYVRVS

B1: YKL017C 267-280 (peptide)
chain: TILERLTPLVPNNL
B2: YMR154C 67-80 (peptide)
chain: TINSRFYPPIPISE
B3: YMR044W 280-293 (peptide)
chain: TKAKKEKPKPPKPI
B4: YLR439W 17-30 (peptide)
chain: TKFTKPKPKQPVLP
B5: YOR004W 192-205 (peptide)
chain: TKKRKLGPKAPNPL
B6: YGR241C 267-280 (peptide)
chain: TKRQRGEPSEPQQD
B7: YOR208W 444-457 (peptide)
chain: TKTDKSYPMSPVDA
B8: YKL148C 624-637 (peptide)
chain: TLDEKESPSVPPTV
B9: YKR055W 36-49 (peptide)
chain: TLDEKNLPRLPTPF
B10: YKR084C 77-90 (peptide)
chain: TLKKKKTPKKPIAA
B11: YAL026C 387-400 (peptide)
chain: TLNDRQIPLSPDQM
B12: YPR171W 298-311 (peptide)
chain: TMKNKPKPTPPSPP
B13: YMR124W 350-363 (peptide)
chain: TNGPRYSPQNPRPF

What was measured:
Test in all cases: SPOT array
[1] = biological target: T1, Boi1 SH3 (BOI1_YEAST), P38041
[2] = biological target: T2, Boi2 SH3 (BOI2_YEAST), P39969
[3] = biological target: T3, Myo5 SH3 (MYO5_YEAST), Q04439
[4] = biological target: T4, Rvs167 SH3 (RV167_YEAST), P39743
[5] = biological target: Sho1 SH3 (SHO1_YEAST), P40073
Sequence of Sho1 SH3 (SHO1_YEAST), P40073 (P40073 295-366): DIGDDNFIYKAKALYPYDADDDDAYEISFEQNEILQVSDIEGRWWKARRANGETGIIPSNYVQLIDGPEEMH

[6] = biological target: T5, Yfr024 SH3 (LSB3_YEAST), P43603
[7] = biological target: T6, Yhr016c SH3 (YSC84_YEAST), P32793

Binder	normalised SPOT signal, Boehringer light units (BLU); mean over the file's lines of this peptide [1]	normalised SPOT signal, Boehringer light units (BLU); mean over the file's lines of this peptide [2]	normalised SPOT signal, Boehringer light units (BLU); mean over the file's lines of this peptide [3]	normalised SPOT signal, Boehringer light units (BLU); mean over the file's lines of this peptide [4]	normalised SPOT signal, Boehringer light units (BLU); mean over the file's lines of this peptide [5]	normalised SPOT signal, Boehringer light units (BLU); mean over the file's lines of this peptide [6]	normalised SPOT signal, Boehringer light units (BLU); mean over the file's lines of this peptide [7]
B1	51.5	-0	249	198	39.5	202	32.2
B2	95.6	6.9	76.4	130	86.9	304	82.1
B3	546	11.1	158	32.6	56.3	95.1	21.2
B4	295	6.1	445	23.4	57.7	0.2	2.8
B5	495	37.3	694	156	25	321	12.6
B6	2030	21.1	27.7	189	44.1	157	43.3
B7	52.5	19.3	150	105	36.1	50.1	15.5
B8	58.2	15.4	212	85.7	32.4	27	57.9
B9	0	0	205	64.3	28100	92.4	64.8
B10	1510	13	535	30.6	64.1	304	31.6
B11	60.6	27.5	73.6	120	30.3	60.2	42.6
B12	292	52.3	910	48	47.8	588	217
B13	30.1	15.5	158	85.3	7.4	470	43.5
